Assay results published in article PMC4660055.

How the values were obtained:
[1] = biological target: PmrA (double-substitution W181G/I220D variant), BeF3^−-activated (Klebsiella pneumoniae); test: crystal structure; BeF3^−-activated PmrA dimer mixed 1:1 with 25-bp or 26-bp pbgP promoter DNA in 20 mM Tris-HCl pH 8.0, 100 mM NaCl, 2.65 mM BeF3^−; three copies of the complex (complex-1, -2, -3) in two crystal forms
PmrA R210A = biological target: T1, PmrA R210A (Klebsiella pneumoniae, UniProt W9BNR5 1-223, R210A); test: fluorescence polarization; BeF3-, Mg2+ (activation); FP: 10 mM sodium phosphate, 15 mM NaCl, pH 7.0, 298 K, 6 nM FAM-DNA; proteins activated with 5.3 mM BeCl2, 35 mM NaF, 7 mM MgCl2. NMR: 20 mM Tris-HCl, 100 mM Na
T1 sequence: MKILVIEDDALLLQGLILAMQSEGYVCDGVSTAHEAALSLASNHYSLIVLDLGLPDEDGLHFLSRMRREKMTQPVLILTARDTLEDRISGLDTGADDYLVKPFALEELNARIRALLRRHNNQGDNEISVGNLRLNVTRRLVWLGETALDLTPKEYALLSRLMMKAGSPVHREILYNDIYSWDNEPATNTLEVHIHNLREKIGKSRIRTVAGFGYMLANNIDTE

PmrA N188A = biological target: T2, PmrA N188A (Klebsiella pneumoniae, UniProt W9BNR5 1-223, N188A); test: as above
T2 sequence: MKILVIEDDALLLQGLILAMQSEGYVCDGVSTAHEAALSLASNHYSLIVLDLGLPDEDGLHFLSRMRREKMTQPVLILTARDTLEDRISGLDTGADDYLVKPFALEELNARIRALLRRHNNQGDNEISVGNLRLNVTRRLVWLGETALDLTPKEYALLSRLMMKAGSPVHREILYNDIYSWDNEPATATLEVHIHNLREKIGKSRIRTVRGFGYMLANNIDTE

WT-PmrA = biological target: T3, WT-PmrA (Klebsiella pneumoniae, UniProt W9BNR5 1-223); test: as above
T3 sequence: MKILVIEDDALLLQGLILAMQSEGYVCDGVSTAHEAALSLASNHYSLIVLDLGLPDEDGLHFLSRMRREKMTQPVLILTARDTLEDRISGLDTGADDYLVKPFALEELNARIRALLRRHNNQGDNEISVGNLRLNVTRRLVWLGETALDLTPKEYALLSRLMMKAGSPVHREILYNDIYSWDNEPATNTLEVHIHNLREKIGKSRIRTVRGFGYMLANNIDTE

[2] = biological target: T4, PmrA (double-substitution variant) (Klebsiella pneumoniae, UniProt W9BNR5 1-223, W181G;I220D); test: as above
T4 sequence: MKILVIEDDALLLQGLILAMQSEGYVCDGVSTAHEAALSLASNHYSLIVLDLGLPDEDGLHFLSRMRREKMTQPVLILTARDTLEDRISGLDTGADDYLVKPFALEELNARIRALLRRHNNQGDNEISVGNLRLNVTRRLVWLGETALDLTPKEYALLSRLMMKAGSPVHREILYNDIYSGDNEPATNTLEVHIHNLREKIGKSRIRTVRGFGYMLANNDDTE

PmrA N196A = biological target: T5, PmrA N196A (Klebsiella pneumoniae, UniProt W9BNR5 1-223, N196A); test: as above
T5 sequence: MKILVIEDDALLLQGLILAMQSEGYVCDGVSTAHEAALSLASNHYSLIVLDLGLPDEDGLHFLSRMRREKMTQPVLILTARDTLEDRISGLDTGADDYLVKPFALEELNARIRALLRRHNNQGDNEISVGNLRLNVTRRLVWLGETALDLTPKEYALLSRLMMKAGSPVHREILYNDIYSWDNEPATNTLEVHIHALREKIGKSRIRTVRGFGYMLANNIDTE

PmrA N176A = biological target: T6, PmrA N176A (Klebsiella pneumoniae, UniProt W9BNR5 1-223, N176A); test: as above
T6 sequence: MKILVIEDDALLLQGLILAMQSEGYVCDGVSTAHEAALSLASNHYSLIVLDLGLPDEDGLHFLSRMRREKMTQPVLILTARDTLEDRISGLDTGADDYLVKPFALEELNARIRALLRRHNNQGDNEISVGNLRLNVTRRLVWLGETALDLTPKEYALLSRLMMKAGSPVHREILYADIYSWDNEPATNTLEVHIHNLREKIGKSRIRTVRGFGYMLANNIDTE

[3] = biological target: T4, PmrA (double-substitution variant); test: X-ray crystallography (3.8 A); BeF3-, Mg2+; FP: 10 mM sodium phosphate, 15 mM NaCl, pH 7.0, 298 K, 6 nM FAM-DNA; proteins activated with 5.3 mM BeCl2, 35 mM NaF, 7 mM MgCl2. NMR: 20 mM Tris-HCl, 100 mM Na

“PmrA (double-substitution W181G/I220D variant), BeF3^−-activated (natural protein)” gave a stoichiometry N [1] of 2.

B1: 25-bp FAM-labelled DNA (FP) (dsDNA)
DNA 1: ATTTCTTAATATTATCCTAAGCAAG
DNA 2: TTGCTTAGGATAATATTAAGAAATC
With B1 the Kd (PmrA R210A) was 3037 ± 11.7 nM, the Kd (PmrA N188A) was 762 ± 12.3 nM and the Kd (WT-PmrA) was 194 ± 7.7 nM. For the same molecule, the Kd [2] was 201 ± 8.2 nM, the Kd (PmrA N196A) was 399 ± 10.9 nM and the Kd (PmrA N176A) was 365 ± 11.6 nM.

B2: 26-bp pmra box DNA (crystal) (dsDNA)
DNA 1: ATTTCTTAATATTATCCTAAGCAAGG
DNA 2: CTTGCTTAGGATAATATTAAGAAATC
B2: binds [3].
